Data on three substances can be found in patent US20110319287A1, “MODULATOR ASSAY” (ADDEX PHARMA S.A., priority 2009, published 2011).

Test in all cases: cell-based or functional assay
The target in experiment [1] is Recombinant Human TL1A/TNFSF15 (R&D Systems, Cat N° 1319-TL) (human) (UniProt O95150).
Experiment [2] concerns the target DR3 receptor expressed in HeLa TRADD DR3 cells (Homo sapiens (Human)) (UniProt Q93038).
In experiment [3] the target is recombinant human TNF-α (Peprotech, Cat N° 300-01A) (human) (UniProt P01375).
Chain of recombinant human TNF-α (Peprotech, Cat N° 300-01A) (human) (P01375 77-233 limits assumed): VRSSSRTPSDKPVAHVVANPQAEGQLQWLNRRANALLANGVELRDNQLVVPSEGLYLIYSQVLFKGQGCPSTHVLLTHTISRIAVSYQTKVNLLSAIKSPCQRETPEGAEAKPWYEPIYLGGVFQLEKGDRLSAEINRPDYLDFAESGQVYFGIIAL

Chain of DR3 receptor expressed in HeLa TRADD DR3 cells (Homo sapiens (Human)) (Q93038 other isoform, or with tags, fused parts or gaps, form in doubt): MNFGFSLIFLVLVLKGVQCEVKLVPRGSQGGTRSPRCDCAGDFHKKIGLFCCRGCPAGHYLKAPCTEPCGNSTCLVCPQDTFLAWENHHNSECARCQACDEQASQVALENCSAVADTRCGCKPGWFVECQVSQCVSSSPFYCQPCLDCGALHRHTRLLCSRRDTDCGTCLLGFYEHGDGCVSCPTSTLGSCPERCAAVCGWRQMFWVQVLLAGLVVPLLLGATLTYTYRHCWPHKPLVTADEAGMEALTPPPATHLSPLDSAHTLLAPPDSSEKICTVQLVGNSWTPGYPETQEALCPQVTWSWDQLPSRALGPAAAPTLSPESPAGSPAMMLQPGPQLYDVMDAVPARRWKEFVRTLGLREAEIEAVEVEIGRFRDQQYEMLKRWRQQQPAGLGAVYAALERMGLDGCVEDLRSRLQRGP
Chain of Recombinant Human TL1A/TNFSF15 (R&D Systems, Cat N° 1319-TL) (human) (O95150 72-251 limits assumed): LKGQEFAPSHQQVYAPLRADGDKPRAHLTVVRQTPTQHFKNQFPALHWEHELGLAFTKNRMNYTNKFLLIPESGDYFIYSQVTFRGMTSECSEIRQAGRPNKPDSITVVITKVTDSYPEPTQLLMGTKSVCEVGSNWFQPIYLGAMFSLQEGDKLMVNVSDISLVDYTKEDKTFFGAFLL

Take “Recombinant Human DcR3/TNFRSF6B/Fc Chimera, CF (R&D Systems, Cat N° 142-DC) (from UniProt O95407 30-300) (Fc fusion)”: the IC50 of inhibition of TL1A-induced TRADD-EYFP relocalisation in HeLa TRADD DR3 cells (300 ng/ml TL1A, FIG. 17) in experiment [1] is 1.41 µg/mL.
In the case of “Recombinant Human TL1A/TNFSF15 (R&D Systems, Cat N° 1319-TL) (from UniProt O95150 72-251) (ligand)”, in experiment [2], the EC50 of TL1A-induced relocalisation of TRADD-EYFP in HeLa TRADD DR3 cells (FIG. 17) was 4.3 ng/mL.
For “etanercept (Enbrel®, from Amgen, Inc.) (Fc fusion)”, in experiment [3], the IC50 of inhibition of TNF-induced TRADD-EYFP relocalisation in HeLa TRADD DR3 cells (100 ng/ml TNF, FIG. 19) worked out at 53.8 ng/mL and the IC50 of inhibition of TNF-induced relocalisation of TRADD-EYFP (TNF dose 300 ng/ml, FIG. 9) was determined as 2.74 µM.
